The values that follow come from patent publication US20080124811A1 (AbbVie / Abbott, published 2008).

Assay [1] concerns the target T1, human brain natriuretic peptide, cyclic BNP (1-32c) (human, cyclic: ring closed by a disulfide bond between the two cysteine residues; biotinylated or acridinium-labelled in some assays).
T1 construct: also called hBNP; hBNP 1-32
Briefly: off-rate assay on yeast-displayed scFv; improvement of koff over 106.3 wt.

Assay [2] deals with T1, human brain natriuretic peptide, cyclic …. Briefly: off-rate assay on yeast-displayed scFv by flow cytometry: biotinylated cyclic BNP (1-32c), chase with unlabelled BNP 1-32c, SA:PE, first order decay fit. For orientation: A flow cytometer gives signals particle by particle.
Assay [3] has the same target. The experiment in a line: KinExA, solution phase. Background: In KinExA the mixture passes briefly over coated beads that capture the unbound partner.
For assay [4] the target is unchanged. Briefly: BIAcore SPR, antibody captured on goat anti-mouse Fc, BNP in solution, 25 C.
The target is the same in assay [5]. Briefly: … sandwich CMIA; capture 3-631-436 on microparticles, detection 106.3AM1-acridinium.
For assay [6] the target is unchanged. The experiment in a line: … sandwich CMIA; capture 3631436 ms on microparticles, detection 106.3AM2-acridinium.
The target is the same in assay [7]. Briefly: Biacore SPR, antibody captured on goat anti-mouse Fc, BNP injected, 1:1 Langmuir fit. In general terms: SPR reads the build-up and loss of mass on a sensor chip optically.
Assay [8] has the same target. The experiment in a line: … sandwich CMIA; capture 3-631-436 on microparticles, detection 106.3AM1-acridinium; second particle type.
For assay [9] the target is unchanged. The experiment in a line: yeast display off-rate assay, flow cytometry; t1/2 = ln 2/koff.
Assay [10] has the same target. The experiment in a line: scFv on yeast; method not described; printed unit µM read as pM (26 pM is said to be 10-fold lower).
Assay [11] shares this target. Briefly: yeast display off-rate assay, flow cytometry, biotinylated cyclic BNP chased with unlabelled BNP, first order decay fit.
Assay [12] shares this target. The experiment in a line: off-rate assay on yeast-displayed scFv by flow cytometry: biotinylated cyclic BNP (1-32c), chase with unlabelled BNP 1-32c, SA:PE, first order decay fit. This is another data set of the same source.
The target is the same in assay [13]. Briefly: off-rate assay on yeast-displayed scFv by flow cytometry: biotinylated cyclic BNP (1-32c), chase with unlabelled BNP 1-32c, SA:PE; m2 of the first order decay fit (error 0.00087362, R 0.98912), time axis in sec.
For assay [14] the target is unchanged. Briefly: off-rate assay on yeast-displayed scFv by flow cytometry: biotinylated cyclic BNP (1-32c), chase with unlabelled BNP 1-32c, SA:PE; m2 of the first order decay fit (error 3.6694e-06, R 0.9993), time axis in sec.

B1: H2 288 (scFv)
scFv (VH-linker-VL with V5 and 6His tags), displayed on yeast: QLVQSGPELRKPGETVKISCKGSGYTFTHYGINWVKQTPRKDLKWMGWINTHTGEAYYADDFKGRFAFSLETSANTAYLQINNLNNGDMGTYFCTRSHRFGLDYWGQGTSVTVSSGPAKELTPLKEAKVSDNVLTQSPPSLAVSLGQRATISCKASQSVDYNGDSYLNWYQQKPGQPPKFLIYAASNLESGIPARFSGSGSGTDFNLNIHPVEEEDAATYYCQQSNEDPFTFGSGTKLEIKRAAALESRGPFEGKPIPNPLLGLDSTRTGHHHHHH
notes: member of group m4
For the molecule B1, the “Fold Improvement” value in [1] was found to be 2.3 fold. The koff (in general, the rate constant with which the complex falls apart) in assay [2] is 3.7e-05 s⁻¹.

B2: monoclonal antibody 3-631-436 (wild-type mouse mAb from hybridoma cell line 3-631-436, A.T.C.C. PTA-6476) (antibody, V domains shown)
VH: QVQLQQPGAELVRPGASVKLSCKASGYTFTSYWMNWVKQRPEQGLEWIGRIDPYDSETHYNQKFKDKAILTVDKSSSTAFVQLTSLTSEDSAVYYCVSDGYWGAGTTVTVSS
VL: DVVMTQTPLTLSVTTGQPASISCKSSQSLLDSDGKTYLNWLFQRPGESPKLLIYVVSKLESGVPDRFTGSGSGTDFTLKISRVEAEDLGVYYCLQATHFPWTFGGGTKLEIK
modifications: In the sandwich assays the antibody was coupled to particles, biotinylated or acridinium-labelled; the letters do not carry this.
notes: the whole entry is named for each chain and must be cut at the linker; Coated on particles, biotinylated or acridinium-conjugated in the sandwich assays
For the molecule B2, the affinity in assay [3], expressed as Kd, was 286 pM. In addition, in assay [4], the equilibrium dissociation constant (Kd) – broadly, the concentration at which binding is half-saturated – turned out to be 380 pM; the koff came out at 0.0025 s⁻¹; the on-rate (kon) (as a rule, the second-order rate constant of association) came to 6.7e+06 M⁻¹ s⁻¹. Also, in [5], the “Ratio B/A (RLU at 30 pg/mL over 0 pg/mL)” value turned out to be 1.9, the “Ratio C/A (RLU at 300 pg/mL over 0 pg/mL)” value turned out to be 27.8, the “Ratio D/A (RLU at 1000 pg/mL over 0 pg/mL)” value was found to be 196 and the “Ratio E/A (RLU at 2000 pg/mL over 0 pg/mL)” value was found to be 471. Further, in assay [6], the “Ratio B/A (RLU at 30 pg/mL over 0 pg/mL)” value stood at 2.7, the “Ratio C/A (RLU at 300 pg/mL over 0 pg/mL)” value stood at 14.3, the “Ratio D/A (RLU at 1000 pg/mL over 0 pg/mL)” value was 32.4 and the “Ratio E/A (RLU at 2000 pg/mL over 0 pg/mL)” value was 198. For the same molecule, the “Ratio F/A (RLU at 5000 pg/mL over 0 pg/mL)” value in assay [6] is 595. This molecule also had a Kd in [7] of 375 pM. In addition, in assay [8], the “Ratio B/A (RLU at 30 pg/mL over 0 pg/mL)” value is 2.4, the “Ratio C/A (RLU at 300 pg/mL over 0 pg/mL)” value was found to be 23.9, the “Ratio D/A (RLU at 1000 pg/mL over 0 pg/mL)” value came to 145 and the “Ratio E/A (RLU at 2000 pg/mL over 0 pg/mL)” value was 409.

B3: 3-631-436 scFv, unmutated, on yeast (scFv)
scFv: QVQLQQPGAELVRPGASVKLSCKASGYTFTSYWMNWVKQRPEQGLEWIGRIDPYDSETHYNQKFKDKAILTVDKSSSTAFVQLTSLTSEDSAVYYCVSDGYWGAGTTVTVSSGPAKELTPLKEAKVSDVVMTQTPLTLSVTTGQPASISCKSSQSLLDSDGKTYLNWLFQRPGESPKLLIYVVSKLESGVPDRFTGSGSGTDFTLKISRVEAEDLGVYYCLQATHFPWTFGGGTKLEIKRAAALESRGPFEGKPIPNPLLGLDSTRTGHHHHHH
As to B3, in assay [9], the “half-life (t1/2)” value was 0.04 h. In addition, the Kd in assay [10] is around 260 pM. Also, the koff in [11] was found to be 0.0047 s⁻¹; in assay [12], 0.0048 s⁻¹; in [13], 0.00474 s⁻¹.

B4: 106.3 single-chain variable fragment (scFv), unmutated, on yeast (scFv)
chain: QIQLVQSGPELRKPGETVKISCKGSGYTFTHYGINWVKQTPRKDLKWMGWINTHTGEPIYADDFKGRFAFSLETSANTAYLQINNLNNGDMGTYFCTRSHRFGLDYWGQGTSVTVSSGPAKELTPLKEAKVSDNVLTQSPPSLAVSLGQRATISCKASQSVDYNGDSYLNWYQQKPGQPPKFLIYAASNLESGIPARFSGSGSGTDFNLNIHPVEEEDAATYYCQQSNEDPFTFGSGTKLEIK
B4: the “half-life (t1/2)” value in assay [9] turned out to be 2.28 h. The results for the off-rate constant (koff) in [2] and in assay [14] were 8.4e-05 s⁻¹ and 8.44e-05 s⁻¹, respectively.
